Test results: the supplement of paper PMC12042874
± gives the uncertainty stated by the source.

Assay: amyloid nucleation score (Sup35N fusion, yeast selection) (log enrichment); library NNK1; higher = more nucleation; inactive = no reads after selection
Outline: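 The nucleation score is the log enrichment of output over input reads, calculated with DiMSum and centred on the mode score of non-aggregating sequences. Sequences with under 100 input reads were excluded. Reads came from Illumina sequencing of plasmid inserts from psi-negative yeast expressing Sup35N fused to peptides of 20 random codons, induced 24 hours with 100 μM copper sulfate and grown 7 days at 30°C without adenine and uracil.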

| Substance | amyloid nucleation score |
| --- | --- |
| VKCYLDLINFRYLLDLGDEA | 0.066 ± 0.2 |
| VKGLRSLGSTCRSLKDGITV | inactive |
| VKGQHFQLKIVRRLRTFRHH | 3.79 ± 0.066 |
| VKGVVYAGH | -1.44 ± 1.8 |
| VKKGILLSVLDASFRTSVYE | -0.424 ± 0.88 |
| VKLGDNNTRQLTYSGS | 1.71 ± 0.73 |
| VKQTGLVARMRWVTGLARDG | -0.921 ± 1.3 |
| VKVCSSSMRFNVL | 0.689 ± 0.58 |
| VKVIVIHAAC | -0.256 ± 0.31 |
| VKVRFIRIYYFFCNSKDFRG | -0.308 ± 0.31 |
| VKVVALRIWRSEDLVVRFWG | 0.562 ± 0.78 |
| VKYWFVVGVVLSWFTER | -0.304 ± 0.24 |
| VLDGNKLQSRSLSCSSWYLS | 4.03 ± 0.12 |
| VLFHHSSQIRVI | inactive |
| VLGDSARVCSGDGV | 0.494 ± 0.74 |
| VLGKLEWCNLSSVTRAPCFM | 0.14 ± 0.71 |
| VLGLGSC | -0.15 ± 0.54 |
| VLGMAEATADFSPIWVSKCS | 0.455 ± 1.4 |
| VLGSKKWDDLGYLYCRLCTH | 0.64 ± 0.65 |
| VLGYAFYCYLCRNLRRNNFS | 0.864 ± 0.53 |
| VLIFWWIMKGRFWVMCSAGY | 0.621 ± 0.89 |
| VLISPGFLSVARCLSLDTLF | -0.343 ± 0.33 |
| VLKCHSGSCRIYTNDSYVAL | 0.387 ± 0.17 |
| VLLDGAKMSESAEGGISALW | -0.161 ± 0.46 |
| VLLSQIVGIWAL | -0.642 ± 0.67 |

| Substance | amyloid nucleation score |
| --- | --- |
| VLLVGVSDESRSRSPQGMSP | 0.243 ± 0.84 |
| VLMFIINSCKR | 7.028 ± 0.052 |
| VLMMLNGTDVKWMESANELS | 0.49 ± 0.41 |
| VLMMVLGRWDTSSVMFIMMV | 0.343 ± 0.97 |
| VLPLQKPRDVGSVISARQWG | 0.837 ± 0.53 |
| VLPRVWCCNADNDSIVDFRG | 2.35 ± 0.097 |
| VLRQMS | 1.67 ± 0.19 |
| VLRWLRKRSFSI | -0.076 ± 0.6 |
| VLSEVDWLSIFHGWMFGVRC | 0.434 ± 1.4 |
| VLSPFTVKIDIKSKISVLGP | 4.11 ± 0.15 |
| VLSPKSNIGDMSLIFMNTAA | 0.54 ± 0.79 |
| VLSRIHCCRTPVDNGFRPQG | -0.95 ± 0.94 |
| VLTLSTKLCLHRGGWTTKPT | 4.2 ± 0.068 |
| VLTTS | -0.086 ± 0.26 |
| VLVHKDSG | -0.852 ± 0.71 |
| VLVMVEFTMLEALWRCLAVG | -0.297 ± 0.5 |
| VMCAT | -0.048 ± 0.59 |
| VMFTTRSWSGDNVFLCV | inactive |
| VMLGGSPHMPIAN | 0.047 ± 0.41 |
| VMNENI | inactive |
| VMTWHL | -0.73 ± 0.45 |
| VMVFGSMPVDDLLHFWLECY | -0.102 ± 0.42 |
| VNASELEYKFTLLVQWMIRR | 1.31 ± 0.32 |
| VNEIRT | -0.153 ± 1.2 |
| VNGTG | -0.252 ± 0.97 |

| Substance | amyloid nucleation score |
| --- | --- |
| VNLRCRSTLEGSN | -0.077 ± 0.31 |
| VNLYGVLMGSLLGGQRQHDV | -1.1 ± 1.9 |
| VNMNELRNNRLSSVVFLVVG | 2.09 ± 0.21 |
| VNQDAGDMKSVRKRAMTRLC | 1.06 ± 0.56 |
| VNSTMVPRVLME | 0.935 ± 0.69 |
| VNSVWNGNR | -0.218 ± 0.71 |
| VPCGKLIISGGVQNCIYYWE | 7.306 ± 0.056 |
| VPCNYKGSLSGRRYLSAKQS | 0.011 ± 0.34 |
| VPLGSDSNHNANVTCYFASA | -0.078 ± 0.37 |
| VPNEYGNSEVRLLDLLGDLE | -0.435 ± 0.36 |
| VPRYGTLEGANESDLFGW | 0.282 ± 0.78 |
| VPSLSPFGRKMFHIRSL | inactive |
| VPTVCYFSNQVR | -0.434 ± 0.33 |
| VPVLLNARIRI | -1.1 ± 0.81 |
| VQCFLAQRSVDSGATELIIV | 0.114 ± 0.59 |
| VQCVHLSNME | 0.105 ± 0.72 |
| VQDVYENFSSPQNIGVMRAS | 0.956 ± 0.81 |
| VQRELFLVLHHTSVGRGSAP | 1.08 ± 0.24 |
| VQYNLTCNYY | 4.01 ± 0.14 |
| VRADFALTWLLGVCRVWCCR | 0.247 ± 0.36 |
| VRAPRSVWRSFAAA | -0.107 ± 0.59 |
| VRECRSMERTTHQVCTWGGA | 0.078 ± 1.4 |
| VRGVSVGSYKSVAELGGTQT | -0.449 ± 1.3 |
| VRHTQHRSSL | -1.62 ± 1.3 |
| VRISWRGGGPLSCDVCACMT | 0.479 ± 1.2 |

| Substance | amyloid nucleation score |
| --- | --- |
| VRLFLCFARSMDVRYFILVG | 0.459 ± 0.57 |
| VRNWWDDNYSFTHAYLSTDG | 1.01 ± 0.66 |
| VRRDQDRPFSTMRQGLRFGH | 0.248 ± 0.31 |
| VRTLRTLAGLRRLLINKS | -0.137 ± 0.54 |
| VRVMILHLSDILYYLWYGTI | 5.22 ± 0.078 |
| VRYMSLWGIVSRVCGIRMER | 1.23 ± 0.56 |
| VSCSDSMAFPSKSCF | 0.712 ± 0.34 |
| VSEFGFIVF | -0.315 ± 0.76 |
| VSKRFRFLRTLFIEECDLRH | 0.576 ± 0.32 |
| VSLYM | 0.924 ± 0.97 |
| VSQVVCGMSYFGDCAIRQES | 0.153 ± 0.5 |
| VSRMP | 3.21 ± 0.12 |
| VSSLWFKDYQYVFDDCYAKP | -0.258 ± 0.56 |
| VSSTYNSFRFVSLGKFNHHC | 2.71 ± 0.17 |
| VSTCAAR | -0.383 ± 0.95 |
| VSTNSDSLLGNCRKNPVHPS | 1.03 ± 0.79 |
| VSTSLGHLVDWGKSM | inactive |
| VSVFLHAVITDPS | 1.9 ± 0.46 |
| VSVFNAQFIDRRGCR | 5.16 ± 0.063 |
| VSVQMAGIF | -0.863 ± 0.54 |
| VSVSRGRTFSFSIGSYRIGR | 3.11 ± 0.091 |
| VSVTLLFFTVPIQGRVMQFS | 0.148 ± 0.29 |
| VSYRTSMSVVLRCGFYCSAY | 3.22 ± 0.14 |
| VSYSGQSLICYWVLEASFVV | -0.05 ± 0.31 |
| VTCWPDICRSFYMIVLHCFR | 0.141 ± 0.7 |

| Substance | amyloid nucleation score |
| --- | --- |
| VTKFLWYIPGPKIGRFYLSN | 0.43 ± 0.38 |
| VTLAQKLLDF | -0.421 ± 1.1 |
| VTMVRYCALIQSYGGDGELV | 0.26 ± 0.45 |
| VTRLLTLPWHCRRIYLVNLY | -0.09 ± 0.97 |
| VTVFEILWGMTT | inactive |
| VVARYYIQLFDRRDRN | 6.678 ± 0.065 |
| VVDFGSGCI | 0.423 ± 0.46 |
| VVFRGIVCCCQ | 0.3 ± 0.58 |
| VVGSVLRGSYTCLG | -0.972 ± 0.82 |
| VVIESYC | 0.593 ± 0.36 |
| VVISIYGMYRSFTPQLWFKA | -0.603 ± 0.68 |
| VVLEHVDYHS | 0.822 ± 0.52 |
| VVRTH | inactive |
| VVSRIDPCTWHCAMIKGHRY | -0.332 ± 1.1 |
| VVSSAEQVHLGVVNGRRFLL | -0.003 ± 0.74 |
| VVTDF | inactive |
| VVTEKGLPWARQW | -0.205 ± 0.33 |
| VVVCSNLMYLNCNWAATNNL | 7.163 ± 0.047 |
| VVVGDSPNGNEEDDWSSC | -2.03 ± 2.7 |
| VVWEQSIDVILGYMGLGPD | 0.381 ± 0.49 |
| VVWWGEQHGLYSYFGHGIGI | 0.968 ± 0.63 |
| VWACSPGDVAFMP | 0.762 ± 0.97 |
| VWGYVMRS | 0.299 ± 0.95 |
| VWLCLRIVVSGNNRACFICV | 1.46 ± 0.19 |
| VWLEYECKVLVLHYCFCRVR | 0.72 ± 0.61 |

| Substance | amyloid nucleation score |
| --- | --- |
| VWTGCVHCRRWDSGSLLNSW | -0.036 ± 0.91 |
| VWYTRGRRHRGTTYMSNRLW | -0.28 ± 0.31 |
| VYFRCTWAISMFFYMSNAGW | 1.35 ± 0.21 |
| VYGVPWYGLSYLFCTSVDID | 6.252 ± 0.059 |
| VYPFD | -1.32 ± 1.4 |
| VYRCCLKAVCFIDVVTGLWG | -0.173 ± 0.71 |
| VYSFDMM | 0.256 ± 0.52 |
| VYSMVFLMPCNRHDSFGRYS | 6.578 ± 0.056 |
| VYSMWTERQFLGMILGGEAG | -0.091 ± 0.85 |
| VYSRPL | 0.098 ± 0.57 |
| VYSSMIVLKDALIPSSKTDA | 0.999 ± 0.51 |
| VYTSRDGNDLEACGGYSAIV | 0.705 ± 0.71 |
| WAHGLLFSYDSLHWYYICKV | 0.304 ± 0.44 |
| WAMDKGWKVNHCNEAPMIHC | -0.053 ± 0.37 |
| WASMIHVEFYSNYFL | -0.017 ± 0.72 |
| WATLALSR | 0.5 ± 0.4 |
| WCARNISRCPSNISGNLGMK | -0.461 ± 0.69 |
| WCSDKSVGRAKDDDSGTRRC | -0.018 ± 0.46 |
| WCSLRSDW | inactive |
| WDFDYSMCVLYMVTAIRLWR | -0.26 ± 0.54 |
| WDKADVFLDDVSASRSSLKM | 3.31 ± 0.088 |
| WFASYCISFN | 2.27 ± 0.21 |
| WFDELGRDFLV | -0.193 ± 1.6 |
| WFGYNIGPK | 2 ± 0.28 |
| WFYKLSSLFYNPLCL | -1.13 ± 0.41 |

| Substance | amyloid nucleation score |
| --- | --- |
| WFYPWVLVWTLSCCVSRHKG | 4.35 ± 0.14 |
| WGCDLEAALY | 0.016 ± 1.7 |
| WGFRENETMV | -0.742 ± 0.46 |
| WGIVVNQYVVRSVRLKLQDR | 2.8 ± 0.13 |
| WGLNWSNSNN | inactive |
| WGMWSGLLFGEFWCS | -0.424 ± 0.71 |
| WHLWIVTTVTHMGSNNFLG | inactive |
| WHMVKSVSTNIV | -0.386 ± 0.58 |
| WICVGYIVTTCSPELGEYRQ | inactive |
| WIILVHGGGKRLSVNIHLLC | -0.713 ± 0.32 |
| WIWVYQTNKIKEMFMRRVWL | inactive |
| WKQMVLGVWCESLELL | -0.548 ± 0.56 |
| WLFLTYNVMGLKVGKFAGHT | -0.437 ± 0.42 |
| WLINTPTHWVFVDIVWYWSK | 0.051 ± 0.84 |
| WLMVLATGAYAMHWVVTSSL | 2.98 ± 0.069 |
| WLNFWILMSVMFVNMSSLFP | -1.01 ± 0.52 |
| WLSHGIEVVVHKTSSVSYWR | -0.796 ± 1.1 |
| WLSPQG | 0.453 ± 0.62 |
| WLVCNEGSIMDLASGLGLIR | 0.561 ± 0.66 |
| WLVQAQALQGWKCFLHKISF | -0.186 ± 0.48 |
| WLVVHSQLFSSCNCLKNTVP | 0.968 ± 0.35 |
| WMALDYGYSTSHGNCYMEIS | 1.23 ± 0.84 |
| WMFTGVRLVSK | 0.3 ± 0.43 |
| WNCLCSGLTC | 6.806 ± 0.055 |
